For 2 molecules, binding result and Kd results are on record in patent US20150210738, “MOLECULAR SLEDS AND USES […]” (The Broad Institute, Inc., published 2015).

The target of data set [1] is streptavidin-Alexa Fluor 546 (UniProt P22629 P22629:25-183). Nature of the data set: FRET; streptavidin alone does not bind. Particulars: tags: Alexa Fluor 546; Invitrogen; chain copies: 4; label: 5'-fluorescein.
Data set [2] concerns the target (pVIc-biotin):streptavidin complex (Human adenovirus 2 / Streptomyces …, UniProt P03274;P22629 P03274:240-250,P22629:25-183). Nature of the data set: FRET quenching, 20 mM Na phosphate pH 7.5, 0.05% DDM. Particulars: tags: pVIc Cys10' PEG-biotin, streptavidin-Alexa Fluor 546 (Invitrogen); label: 5'-fluorescein.
For data set [3], the target named is T1, random peptide (scrambled pVIc) (synthetic).
T1 chain: SFRRCGLRQVK
Nature of the data set: FP; scrambled pVIc; does not slide on DNA. As to conditions: tags: Cy3B at Cys5'; label: 5'-fluorescein (unlabeled with Cy3B-labeled protein).

The target in data set [4] is T2, pVIc (C-terminal peptide of pVI) (Human adenovirus 2, UniProt P03274).
T2 chain: GVQSLKRRRCF
Briefly: FP; Cy3B-pVIc, 20 mM Hepes pH 7, 0.025% DDM, 10 mM NaCl; 7 bp site. As to conditions: protein: synthetic; tags: synthetic peptide; Cy3B at Cys10' in pH 7 and sliding assays; label: 5'-fluorescein (unlabeled with Cy3B-labeled protein).

Data set [5] addresses pVI (precursor to protein VI) (Human adenovirus 2, UniProt P03274 P03274:1-250). Briefly: FP; 0.02 M NaCl, pH 8; 155, 328, 449, 1044 nM at 0.03, 0.04, 0.05, 0.06 M NaCl; 2.9 ion pairs. As to conditions: label: 5'-fluorescein (unlabeled with Cy3B-labeled protein).
Data set [6] has as its target T3, 8-Actin-C (beta-actin C-terminal peptide).
T3 chain: SIVHRKC(Cy3B)F
Nature of the data set: FP; Cy3B-peptide, pH 7. As to conditions: protein: synthetic; tags: synthetic peptide; Cy3B at Cys7'; label: 5'-fluorescein (unlabeled with Cy3B-labeled protein).

No end group written: not given here.

pVI (precursor to protein VI), sequence (P03274 whole entry, one chain of several): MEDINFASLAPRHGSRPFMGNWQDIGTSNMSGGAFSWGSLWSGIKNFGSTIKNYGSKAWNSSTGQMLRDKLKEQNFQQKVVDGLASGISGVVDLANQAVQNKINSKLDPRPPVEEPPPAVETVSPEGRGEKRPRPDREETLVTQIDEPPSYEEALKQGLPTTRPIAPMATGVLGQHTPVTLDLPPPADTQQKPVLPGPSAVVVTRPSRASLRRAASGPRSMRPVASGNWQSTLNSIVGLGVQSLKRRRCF
(pVIc-biotin):streptavidin complex, sequence (P22629 25-183, one chain of several): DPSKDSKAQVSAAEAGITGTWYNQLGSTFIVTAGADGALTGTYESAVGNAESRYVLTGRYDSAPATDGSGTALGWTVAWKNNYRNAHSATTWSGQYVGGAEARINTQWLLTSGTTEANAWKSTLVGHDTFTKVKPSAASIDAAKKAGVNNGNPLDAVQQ
streptavidin-Alexa Fluor 546, sequence (P22629 25-183, one chain of several): as above

B1: 18-mer dsDNA (dsDNA)
DNA 1: CAGGAAACAGCTATGACC
DNA 2: GGTCATAGCTGTTTCCTG
As a reminder, the Kd is the concentration at which binding is half-saturated. Higher therefore signals a looser complex. For B1, the binding result in data set [1] is “no binding”. The molecule also came in with a Kd in data set [2] of 35 nM.

B2: 12-mer dsDNA (dsDNA)
DNA 1: GACGACTAGGAT
DNA 2: ATCCTAGTCGTC
For the molecule B2, the dissociation constant (Kd) in data set [3] turned out to be 646 nM; in data set [4], 264 nM; in data set [5] it was 55 nM; in data set [6], 5 nM.
